Results from patent publication CN117736324A (BEIJING DONGFANG BIOTECH CO LTD; BEIJING JINGYI TAIXIANG …, dated 2024).

T1: 人Siglec-15抗原 (Siglec-15蛋白胞外段) (human, UniProt Q6ZMC9 20-263)
T1 construct: extracellular domain
T1 sequence (looked up): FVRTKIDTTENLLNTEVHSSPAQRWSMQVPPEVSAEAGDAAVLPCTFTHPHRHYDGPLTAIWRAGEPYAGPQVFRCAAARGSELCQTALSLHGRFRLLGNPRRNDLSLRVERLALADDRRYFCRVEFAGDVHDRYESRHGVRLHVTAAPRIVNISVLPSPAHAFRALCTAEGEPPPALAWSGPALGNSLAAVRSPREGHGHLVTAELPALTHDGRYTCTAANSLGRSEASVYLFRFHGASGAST

B1: MA-II 鼠源抗Siglec-15单克隆抗体 (mouse IgG1/Ck) (antibody, V domains shown)
VH: EVKLEQSGGGLVKPGGSLKLSCAASGFTFSSYAMSWVRQSPEKRLEWVAEIISGGSHTYYPDTVTGRFTISRDDAKNTLYLEMSSLRSEDTAMYYCARDGNYGYAMDYWGQGTSVTVSS
VL: DIVITQTPAIMSASPGEKVTMTCRASSSVSSSYLHWYQQKSGASPKLWIYSTSNLASGVPARFSGGGSGTSYSLTISSVEAEDDATYYCQQWSGYPWTFGGGTKLEIKA
notes: also called 鼠源抗体分子
B2: MA-III 鼠源抗Siglec-15单克隆抗体 (mouse IgG1/Ck) (antibody, V domains shown)
VH: QVKLEESGPELVKPGASVKMSCKASGYIFTSYVMHWVRQKPGQGLEWIGYIDPYNDRTKYNEKFKGKATLTSDKSSSTAYMELSSLTSEDSAVYYCARSGDYGSSFDYWGQGTTLTVSS
VL: DIVMTQSPSSLSASLGERVSLTCRASQEISGYLSWLQQKPDGTIKRLIYAASTLDSGVPKRFSGSRSGSDYSLTISSLESEDFADYYCLQYASYPYTFGGGTKLEIKA
notes: also called 鼠源抗体分子
B3: MA-IV 鼠源抗Siglec-15单克隆抗体 (mouse IgG1/Ck) (antibody, V domains shown)
VH: EVKLQESGAELVKPGASVKLSCIASGFNIKDTFIHWVKQRPEQGLEWIGRIDPASGYTKYDPKFQGKATITTDTSSNTAYLQLSSLTSEDTAVYYCTRSGSYVSFVYWGQGTLVTVSA
VL: DIVMTQTPASLAVSLGQRATISCKASQSVDYDGDSYMNWYQQKPGQPPKLLIYAASNLESGIPARFSGSGSGTDFTLNIHPVEEEDAATYYCQQSNEDPWTFGGGTKLEIKA
notes: also called 鼠源抗体分子
B4: MA-I 鼠源抗Siglec-15单克隆抗体 (mouse IgG1/Ck) (antibody)
heavy: EVKLEQSGPELVKPGASVKISCKASGYTFTDYNMFWVKQSHGKTLEWIGYIYPDNGGTGYNQNFKSKATLTVDNSSSSAYMELRSLTSEDSAVYYCARSEYDYFDYWGQGTTLTVSSAKTTPPSVYPLAPGSAAQTNSMVTLGCLVKGYFPEPVTVTWNSGSLSSGVHTFPAVLQSDLYTLSSSVTVPSSTWPSETVTCNVAHPASSTKVDKKIVPRDCGCKPCICTVPEVSSVFIFPPKPKDVLTITLTPKVTCVVVDISKDDPEVQFSWFVDDVEVHTAQTQPREEQFNSTFRSVSELPIMHQDWLNGKEFKCRVNSAAFPAPIEKTISKTKGRPKAPQVYTIPPPKEQMAKDKVSLTCMITDFFPEDITVEWQWNGQPAENYKNTQPIMDTDGSYFVYSKLNVQKSNWEAGNTFTCSVLHEGLHNHHTEKSLSHSPG
light: DIVLTQSTSSLSASLGDRVTISCRASQDISNYLNWYQQKPDGTVKLLIYYTSRLHSGVPSRFSGSGSGTDYSLTISNLEQEDIATYFCQQGNTLPLTFGAGTKLELKADAAPTVSIFPPSSEQLTSGGASVVCFLNNFYPKDINVKWKIDGSERQNGVLNSWTDQDSKDSTYSMSSTLTLTKDEYERHNSYTCEATHKTSTSPIVKSFNRNEC
notes: also called MA-1; 鼠源抗体分子
B5: MA-I 噬菌体单克隆抗体 (phage-displayed scFv) (scFv, V domains shown)
VH: EVKLEQSGPELVKPGASVKISCKASGYTFTDYNMFWVKQSHGKTLEWIGYIYPDNGGTGYNQNFKSKATLTVDNSSSSAYMELRSLTSEDSAVYYCARSEYDYFDYWGQGTTLTVSS
VL: DIVLTQSTSSLSASLGDRVTISCRASQDISNYLNWYQQKPDGTVKLLIYYTSRLHSGVPSRFSGSGSGTDYSLTISNLEQEDIATYFCQQGNTLPLTFGAGTKLELK
notes: also called 抗Siglec-15噬菌体单克隆抗体
B6: MA-II 噬菌体单克隆抗体 (phage-displayed scFv) (scFv, V domains shown)
VH: EVKLEQSGGGLVKPGGSLKLSCAASGFTFSSYAMSWVRQSPEKRLEWVAEIISGGSHTYYPDTVTGRFTISRDDAKNTLYLEMSSLRSEDTAMYYCARDGNYGYAMDYWGQGTSVTVSS
VL: DIVITQTPAIMSASPGEKVTMTCRASSSVSSSYLHWYQQKSGASPKLWIYSTSNLASGVPARFSGGGSGTSYSLTISSVEAEDDATYYCQQWSGYPWTFGGGTKLEIK
notes: as for B5
B7: MA-III 噬菌体单克隆抗体 (phage-displayed scFv) (scFv, V domains shown)
VH: QVKLEESGPELVKPGASVKMSCKASGYIFTSYVMHWVRQKPGQGLEWIGYIDPYNDRTKYNEKFKGKATLTSDKSSSTAYMELSSLTSEDSAVYYCARSGDYGSSFDYWGQGTTLTVSS
VL: DIVMTQSPSSLSASLGERVSLTCRASQEISGYLSWLQQKPDGTIKRLIYAASTLDSGVPKRFSGSRSGSDYSLTISSLESEDFADYYCLQYASYPYTFGGGTKLEIK
notes: as for B5
B8: MA-IV 噬菌体单克隆抗体 (phage-displayed scFv) (scFv, V domains shown)
VH: EVKLQESGAELVKPGASVKLSCIASGFNIKDTFIHWVKQRPEQGLEWIGRIDPASGYTKYDPKFQGKATITTDTSSNTAYLQLSSLTSEDTAVYYCTRSGSYVSFVYWGQGTLVTVSA
VL: DIVMTQTPASLAVSLGQRATISCKASQSVDYDGDSYMNWYQQKPGQPPKLLIYAASNLESGIPARFSGSGSGTDFTLNIHPVEEEDAATYYCQQSNEDPWTFGGGTKLEIK
notes: as for B5
B9: 人源化抗体分子HA-II (human IgG1/Ck) (antibody, V domains shown)
VH: QVQLVQSGAEVKKPGASVKVSCKASGYTFTDYNMFWVRQAPGQRLEWIGYIYPDNGGTGYNQNFKSKATLTVDNSASTAYMELSSLRSEDTAVYYCARSEYDYFDYWGQGTLVTVSS
VL: DIQLTQSPSSLSASVGDRVTITCRASQDISNYLNWYQQKPGKAPKLLIYYTSRLHSGVPSRFSGSGSGTDYTFTISSLQPEDIATYFCQQGNTLPLTFGQGTKVELKR
notes: also called HA-Ⅱ
B10: 嵌合抗体CA-I (antibody, human IgG1, kappa, L234A L235A)
heavy: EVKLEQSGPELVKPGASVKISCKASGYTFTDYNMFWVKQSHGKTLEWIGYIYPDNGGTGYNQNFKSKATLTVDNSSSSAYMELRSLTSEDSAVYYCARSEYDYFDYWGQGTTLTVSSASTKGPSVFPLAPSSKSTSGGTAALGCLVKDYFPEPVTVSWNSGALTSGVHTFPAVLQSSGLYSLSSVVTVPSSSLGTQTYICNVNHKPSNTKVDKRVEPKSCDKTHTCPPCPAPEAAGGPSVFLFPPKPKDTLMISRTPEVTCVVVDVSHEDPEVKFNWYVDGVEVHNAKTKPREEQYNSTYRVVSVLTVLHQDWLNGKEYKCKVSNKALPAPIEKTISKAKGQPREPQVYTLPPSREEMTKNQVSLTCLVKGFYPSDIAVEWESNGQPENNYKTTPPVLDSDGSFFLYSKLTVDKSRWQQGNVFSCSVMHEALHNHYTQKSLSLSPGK
light: DIVLTQSTSSLSASLGDRVTISCRASQDISNYLNWYQQKPDGTVKLLIYYTSRLHSGVPSRFSGSGSGTDYSLTISNLEQEDIATYFCQQGNTLPLTFGAGTKLELKRTVAAPSVFIFPPSDEQLKSGTASVVCLLNNFYPREAKVQWKVDNALQSGNSQESVTEQDSKDSTYSLSSTLTLSKADYEKHKVYACEVTHQGLSSPVTKSFNRGEC

These binders were tested against T1, 人Siglec-15抗原 (Siglec-15蛋白胞外段) (assay: ELISA, Siglec-15 coated, Goat Anti-Mouse IgG-HRP detection).

Q: Does B1 bind?
A: binds

Q: Does B2 bind?
A: binds

Q: Does B3 bind?
A: binds

Q: Does B4 bind?
A: binds

Each binder was assayed against T1, 人Siglec-15抗原 (Siglec-15蛋白胞外段) (assay: phage supernatant ELISA, screening of single clones).

Q: Does B5 bind?
A: binds

Q: Does B6 bind?
A: binds

Q: Does B7 bind?
A: binds

Q: Does B8 bind?
A: binds

These binders were tested against T1, 人Siglec-15抗原 (Siglec-15蛋白胞外段) (assay: ELISA, Siglec-15 coated, Goat Anti Human IgG-HRP detection).

Q: Does B9 bind?
A: binds

Q: Does B10 bind?
A: binds
